# Patent US20200407435A1 (Boehringer Ingelheim, published 2020)
# Several values for one entry are separate records, joined by “and”; a condition that tells them apart may be missing. Equal values may be shown once.
# T1: Human ANGPT2 Dimer (CC-FLD) (human, UniProt O15123 74-496, limits assumed)
# T1 construct: domain: CC-FLD; also called ANGPT2 protein with His-tag; not shown: His-tag
# T1 sequence (looked up): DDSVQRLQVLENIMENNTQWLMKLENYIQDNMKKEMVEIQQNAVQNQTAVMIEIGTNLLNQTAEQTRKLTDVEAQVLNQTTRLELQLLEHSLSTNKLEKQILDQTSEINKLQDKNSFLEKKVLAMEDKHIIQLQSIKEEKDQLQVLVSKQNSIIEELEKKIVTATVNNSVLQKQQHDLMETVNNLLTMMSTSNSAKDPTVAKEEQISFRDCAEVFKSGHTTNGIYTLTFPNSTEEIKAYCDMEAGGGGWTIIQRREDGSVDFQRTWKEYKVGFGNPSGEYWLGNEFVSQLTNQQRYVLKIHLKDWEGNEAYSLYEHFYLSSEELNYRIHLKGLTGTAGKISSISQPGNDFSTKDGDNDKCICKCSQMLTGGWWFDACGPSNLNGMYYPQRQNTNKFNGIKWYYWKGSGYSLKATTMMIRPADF
# T2: rabbit ANGPT2 (rabbit, UniProt G1T9B3 275-496)
# T2 construct: domain: FLD domain; also called rabbit ANGPT2 FLD domain
# T2 sequence: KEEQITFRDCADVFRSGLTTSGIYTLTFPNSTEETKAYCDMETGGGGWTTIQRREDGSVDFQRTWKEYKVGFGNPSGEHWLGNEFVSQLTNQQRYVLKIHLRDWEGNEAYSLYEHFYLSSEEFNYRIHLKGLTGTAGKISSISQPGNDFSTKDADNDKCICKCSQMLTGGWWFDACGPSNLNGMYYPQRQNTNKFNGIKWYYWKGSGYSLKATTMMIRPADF
# T3: human ANGPT2 (SPR analyte) (human, UniProt O15123 275-496, limits assumed)
# T3 construct: domain: FLD domain; also called HuANGPT2; human ANGPT2 FLD domain
# T3 sequence (looked up): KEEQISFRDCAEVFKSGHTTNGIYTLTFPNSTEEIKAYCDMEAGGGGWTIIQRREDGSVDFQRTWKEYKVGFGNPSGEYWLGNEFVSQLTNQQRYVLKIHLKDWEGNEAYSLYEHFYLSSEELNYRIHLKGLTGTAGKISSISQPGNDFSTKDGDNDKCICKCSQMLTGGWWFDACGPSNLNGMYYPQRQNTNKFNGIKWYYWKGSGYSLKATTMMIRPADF
# T4: cynomolgus (cyno) ANGPT2 (cynomolgus, UniProt A0A2K5VNX6 275-496)
# T4 construct: domain: FLD domain; also called cyno ANGPT2 FLD domain
# T4 sequence: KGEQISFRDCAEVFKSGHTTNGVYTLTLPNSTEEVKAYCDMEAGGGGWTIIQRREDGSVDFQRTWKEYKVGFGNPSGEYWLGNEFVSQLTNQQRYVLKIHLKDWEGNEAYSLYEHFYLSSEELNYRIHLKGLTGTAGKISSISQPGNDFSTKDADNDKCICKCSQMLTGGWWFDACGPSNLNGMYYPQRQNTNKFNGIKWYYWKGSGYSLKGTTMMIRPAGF
# T5: rhAngiopoietin-2 (R&D systems cat 623-AN/CF) (human, UniProt O15123 19-496, limits assumed)
# T5 sequence (looked up): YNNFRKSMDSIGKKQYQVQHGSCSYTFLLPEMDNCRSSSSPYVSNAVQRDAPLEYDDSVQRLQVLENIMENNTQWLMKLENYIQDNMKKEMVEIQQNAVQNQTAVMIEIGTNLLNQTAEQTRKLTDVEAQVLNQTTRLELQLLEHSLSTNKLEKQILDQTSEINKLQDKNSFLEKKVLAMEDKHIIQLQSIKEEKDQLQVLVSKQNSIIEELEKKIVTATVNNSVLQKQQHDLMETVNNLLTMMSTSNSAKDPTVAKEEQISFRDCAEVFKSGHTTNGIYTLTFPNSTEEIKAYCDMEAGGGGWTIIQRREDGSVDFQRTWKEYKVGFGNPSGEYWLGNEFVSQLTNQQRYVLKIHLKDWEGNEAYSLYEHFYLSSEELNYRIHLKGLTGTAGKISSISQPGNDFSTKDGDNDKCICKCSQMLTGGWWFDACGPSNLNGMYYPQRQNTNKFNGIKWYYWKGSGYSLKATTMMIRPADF
# Experiments:
# [1] = target: T1, Human ANGPT2 Dimer (CC-FLD); assay: flow cytometry blocking assay: antibody titrated against His-tagged human ANGPT2 dimer (CC-FLD) binding to HEK293 human Tie2 cells
# Description: Human ANGPT2 Dimer (CC-FLD) is pre-incubated with the testing antibodies. The ANGPT2/Antibody mixture is then incubated with HEK293 human Tie2 cells at 4° C. After washing, the cells are stained with anti-His-AF647 (from GenScript) for detection of the His-tag on the ANGPT2 protein. The binding of the secondarily labelled ANGPT2 to human Tie2 cells is detected by FLOW cytometry. The average of the duplicate values for each concentration point is used to derive the curve fit graphs. Antibodies that prevent ANGPT2 from binding to the Tie2 cells are considered blocking antibodies. The results are shown in FIGS. 3A-3G and the EC50 values are shown in Table 5 based on the average of duplicate values.
# [2] = target: T2, rabbit ANGPT2; assay: SPR (ProteOn XPR36), antibody captured on Protein A/G, rabbit ANGPT2 as analyte
# Description: The binding affinity to the various ANGPT2 analytes is determined by surface plasmon resonance (SPR) using a ProteOn XPR36 (Bio-Rad). Unless otherwise stated, all reagents are obtained from Bio-Rad. The running buffer for all assays and dilutions (except where stated) is phosphate buffered saline (PBS)/ethylenediamine tetraacetic acid (EDTA) with 0.01% Tween20 (PBS-T-EDTA). PBS-T-EDTA is prepared by adding 100 μl of 100% Tween20 to 2 L of PBS-T-EDTA with an initial concentration of 0.005% Tween20 to make a final Tween20 concentration of 0.01%. The general linearized model (GLM) sensorchip is normalized, pre-conditioned, and activated with an equal mixture of 1-ethyl-3-[3-dimethylaminopropyl]carbodiimide (EDC)/N-hydroxysulfosuccinimide (s-NHS) in the horizontal direction for 300 sec at a flow rate of 30 μl/min. Immobilization is then is done with Recombinant Protein A/G (Thermo Scientific) (60 μg/ml in 10 mM acetate pH 4.5) in the horizontal direction for 300 sec at a flowrate of 30 μl/min resulting in about 4370-4875 response units (RUs) of Protein A/G on the surface. The sensorchip is then deactivated with 1M ethanolamine HCl in the horizontal direction for 300 sec at a flowrate of 30 μl/min. The sensorchip is stabilized with 18 sec of 0.85% phosphoric acid at a flowrate of 100 μl/min 3 times horizontally and 3 times vertically. […]
# [3] = target: T3, human ANGPT2 (SPR analyte); assay: SPR (ProteOn XPR36), antibody captured on Protein A/G, ANGPT2 as analyte, 1:1 Langmuir fit
# Description: (§1) The binding affinity to the various ANGPT2 analytes is determined by surface plasmon resonance (SPR) using a ProteOn XPR36 (Bio-Rad). Unless otherwise stated, all reagents are obtained from Bio-Rad. The running buffer for all assays and dilutions (except where stated) is phosphate buffered saline (PBS)/ethylenediamine tetraacetic acid (EDTA) with 0.01% Tween20 (PBS-T-EDTA). PBS-T-EDTA is prepared by adding 100 μl of 100% Tween20 to 2 L of PBS-T-EDTA with an initial concentration of 0.005% Tween20 to make a final Tween20 concentration of 0.01%. The general linearized model (GLM) sensorchip is normalized, pre-conditioned, and activated with an equal mixture of 1-ethyl-3-[3-dimethylaminopropyl]carbodiimide (EDC)/N-hydroxysulfosuccinimide (s-NHS) in the horizontal direction for 300 sec at a flow rate of 30 μl/min. Immobilization is then is done with Recombinant Protein A/G (Thermo Scientific) (60 μg/ml in 10 mM acetate pH 4.5) in the horizontal direction for 300 sec at a flowrate of 30 μl/min resulting in about 4370-4875 response units (RUs) of Protein A/G on the surface. The sensorchip is then deactivated with 1M ethanolamine HCl in the horizontal direction for 300 sec at a flowrate of 30 μl/min. The sensorchip is stabilized with 18 sec of 0.85% phosphoric acid at a flowrate of 100 μl/min 3 times horizontally and 3 times vertically.
# (§2) Each ANGPT2 antibody is captured on the Protein A/G surface vertically for 300 sec at a flowrate of 30 μl/min resulting in a capture level of about 2500 RU. The baseline is stabilized by injecting PBS-T-EDTA for 60 sec at a flowrate of 100 μl/min horizontally with dissociation of 120 sec. The analyte (e.g., HuANGPT2) is injected horizontally over the captured antibody for 300 sec at a flowrate of 30 μl/min and a dissociation for 1800 sec. […] The surface is regenerated by injecting 0.85% phosphoric acid for 18 sec at a flowrate of 100 μl/min one time horizontally and one time vertically. PBS-T-EDTA is injected for 60 sec at a flowrate of 100 μl/min one time vertically and one time horizontally.
# (§3) The interspot (interactions with sensor surface) and blank (PBS-T-EDTA with 0.01% Tween20 or 0 nM of analyte (here HuANGPT2)) are subtracted from the raw data.
# [4] = target: T4, cynomolgus (cyno) ANGPT2; assay: as above
# Description: as §1, §2, §3
# [5] = target: T5, rhAngiopoietin-2 (R&D systems cat …); assay: cell-based or functional assay
binder,measurement,setting,value
"ANGPT2-opt-13 (humanized) (antibody, human IgG1, kappa, V domains shown, also called Ang2-opt-13; ANGPT-opt-13) VH: QVQLVQSGAEVKKPGSSVKVSCKASGYIFIDYFINWVRQAPGQGLEWMGKIGPGSGSSSSNEKFKGRVTITADKSTSTAYMELSSLRSEDTAVYYCAREAFDYDGDYYGMAYWGQGTLVTVSS VL: EIVMTQSPATLSVSPGERATLSCKSSQSLLSSGNQKSFLAWYQQKPGQAPRLLIYGASTRETGIPARFSGSGSGTEFTLTISSLQSEDFAVYYCQNDHSYPITFGQGTKLEIKR",EC50,[1],13 nM
same,Kd,[2],0.133 nM
same,Kd,[3],0.144 nM
same,koff,[3],1.89e-05 s⁻¹
same,kon,[3],132000 M⁻¹ s⁻¹
same,Kd,[4],0.146 nM
same,koff,[4],2.08e-05 s⁻¹
same,kon,[4],142000 M⁻¹ s⁻¹
same,"Tie2 phosphorylation functional assay, EC50",[5],4.2 nM and 4 nM
